{
  "source": "paper PMC11233575",
  "about": "“Unlocking the function promiscuity of old yellow enzyme to catalyze asymmetric Morita-Baylis-Hillman reaction” (Nature Communications, 2024)",
  "key": {"[1]": {"substrate": "O=C1C=CCC1", "assay": "initial velocity of MBH adduct formation by HPLC, Michaelis-Menten fit", "assay_type": "biochemical, Geobacillus kaustophilus", "settings": "4 mM 4-nitrobenzaldehyde, PBS pH 10.0, 3% methanol, 25 °C", "description": "(§1) initial velocity of MBH adduct formation by HPLC, Michaelis-Menten fit on GkOYE"}, "[2]": {"substrate": "O=Cc1ccc([N+](=O)[O-])cc1", "assay": "initial velocity of MBH adduct formation by HPLC, Michaelis-Menten fit", "assay_type": "biochemical, Geobacillus kaustophilus", "settings": "5 mM 2-cyclopenten-1-one, PBS pH 10.0, 3% methanol, 25 °C", "description": "as §1"}, "[3]": {"target": "the molecule itself", "assay": "crystal structure; apo-GkOYE.8 at 15 mg/mL, hanging drop, 0.1 M glycine pH 9.0, 25% (w/v) polyethylene glycol 2000, 15% (w/v) glycerol, 20 °C; 3.11 Å"}, "[4]": {"settings": "GkOYE.8, MBH reaction, no FMN, covalent intermediate at C26"}},
  "data": [
    {"protein": "GkOYE.8 (GkOYE^Q102A/Y169F/R215A/R308A) (enzyme, Geobacillus kaustophilus, FMN-free (apo); Expressed from the plasmid pET28a-GkOYE.8; also called apo-GkOYE.8; source: E. coli BL21(DE3), purified (Strep-Tactin column; HisTrap HP column for crystallization)) MNTMLFSPYTIRGLTLKNRIVMSPMCMYSCDTKDGAVRTWHKIHYPARAVGQVGLIIVEATGVTPQGRISERDLGIWSDDHIAGLRELVGLVKEHGAAIGIALAHAGRKSQVPGEIIAPSAVPFDDSSPTPKEMTKADIEETVQAFQNGARRAKEAGFDVIEIHAAHGFLINEFLSPLSNRRQDEYGGSPENRYRFLGEVIDAVREVWDGPLFVAISASDYHPDGLTAKDYVPYAKRMKEQGVDLVDVSSGAIVPARMNVYPGYQVPFAELIRREADIPTGAVGLITSGWQAEEILQNGRADLVFLGAELLRNPYWPYAAARELGAKISAPVQYERGWRF", "values": [
      {"measurement": "Km", "setting": "[1]; [4]", "result": 4.28, "unit": "mM"},
      {"measurement": "kcat", "setting": "[1]; [4]", "result": 0.000178, "unit": "s⁻¹"},
      {"measurement": "kcat/Km", "setting": "[1]; [4]", "result": 0.0417, "unit": "M⁻¹ s⁻¹"},
      {"measurement": "Km", "setting": "[2]; GkOYE.8, MBH reaction, no FMN", "result": 15.98, "unit": "mM"},
      {"measurement": "kcat", "setting": "[2]; GkOYE.8, MBH reaction, no FMN", "result": 0.000458, "unit": "s⁻¹"},
      {"measurement": "kcat/Km", "setting": "[2]; GkOYE.8, MBH reaction, no FMN", "result": 0.0278, "unit": "M⁻¹ s⁻¹"},
      {"measurement": "stoichiometry N", "setting": "[3]", "result": 2}
    ]},
    {"protein": "GkOYE (Geobacillus kaustophilus HTA426; D247I/G62W/H167A/Q102A/R215A/R308A/Y169F) (protein, recombinant, Strep-tagged, pET28a, E. coli BL21(DE3); Strep-Tactin purified; dimer in crystal) MNTMLFSPYTIRGLTLKNRIVMSPMCMYSCDTKDGAVRTWHKIHYPARAVGQVGLIIVEATWVTPQGRISERDLGIWSDDHIAGLRELVGLVKEHGAAIGIALAHAGRKSQVPGEIIAPSAVPFDDSSPTPKEMTKADIEETVQAFQNGARRAKEAGFDVIEIHAAAGFLINEFLSPLSNRRQDEYGGSPENRYRFLGEVIDAVREVWDGPLFVAISASDYHPDGLTAKDYVPYAKRMKEQGVDLVIVSSGAIVPARMNVYPGYQVPFAELIRREADIPTGAVGLITSGWQAEEILQNGRADLVFLGAELLRNPYWPYAAARELGAKISAPVQYERGWRF", "values": [
      {"measurement": "Km", "setting": "[1]; GkOYE.11, MBH reaction", "result": 1.70, "unit": "mM"},
      {"measurement": "kcat", "setting": "[1]; GkOYE.11, MBH reaction", "result": 0.00019, "unit": "s⁻¹"},
      {"measurement": "kcat/Km", "setting": "[1]; GkOYE.11, MBH reaction", "result": 0.114, "unit": "M⁻¹ s⁻¹"},
      {"measurement": "Km", "setting": "[2]; GkOYE.11, MBH reaction", "result": 11.22, "unit": "mM"},
      {"measurement": "kcat", "setting": "[2]; GkOYE.11, MBH reaction", "result": 0.000478, "unit": "s⁻¹"},
      {"measurement": "kcat/Km", "setting": "[2]; GkOYE.11, MBH reaction", "result": 0.0417, "unit": "M⁻¹ s⁻¹"}
    ]},
    {"protein": "GkOYE (Geobacillus kaustophilus HTA426; Q102A/R215A/R308A/Y169W) (protein, recombinant, Strep-tagged, pET28a, E. coli BL21(DE3); Strep-Tactin purified; dimer in crystal) MNTMLFSPYTIRGLTLKNRIVMSPMCMYSCDTKDGAVRTWHKIHYPARAVGQVGLIIVEATGVTPQGRISERDLGIWSDDHIAGLRELVGLVKEHGAAIGIALAHAGRKSQVPGEIIAPSAVPFDDSSPTPKEMTKADIEETVQAFQNGARRAKEAGFDVIEIHAAHGWLINEFLSPLSNRRQDEYGGSPENRYRFLGEVIDAVREVWDGPLFVAISASDYHPDGLTAKDYVPYAKRMKEQGVDLVDVSSGAIVPARMNVYPGYQVPFAELIRREADIPTGAVGLITSGWQAEEILQNGRADLVFLGAELLRNPYWPYAAARELGAKISAPVQYERGWRF", "values": [
      {"measurement": "Km", "setting": "[1]; GkOYE.12, MBH reaction", "result": 4.50, "unit": "mM"},
      {"measurement": "kcat", "setting": "[1]; GkOYE.12, MBH reaction", "result": 0.000167, "unit": "s⁻¹"},
      {"measurement": "kcat/Km", "setting": "[1]; GkOYE.12, MBH reaction", "result": 0.0361, "unit": "M⁻¹ s⁻¹"},
      {"measurement": "Km", "setting": "[2]; GkOYE.12, MBH reaction", "result": 17.28, "unit": "mM"},
      {"measurement": "kcat", "setting": "[2]; GkOYE.12, MBH reaction", "result": 0.000422, "unit": "s⁻¹"},
      {"measurement": "kcat/Km", "setting": "[2]; GkOYE.12, MBH reaction", "result": 0.025, "unit": "M⁻¹ s⁻¹"}
    ]},
    {"protein": "GkOYE (Geobacillus kaustophilus HTA426; G62W/Q102A/R215A/R308A/Y169F) (protein, recombinant, Strep-tagged, pET28a, E. coli BL21(DE3); Strep-Tactin purified; dimer in crystal) MNTMLFSPYTIRGLTLKNRIVMSPMCMYSCDTKDGAVRTWHKIHYPARAVGQVGLIIVEATWVTPQGRISERDLGIWSDDHIAGLRELVGLVKEHGAAIGIALAHAGRKSQVPGEIIAPSAVPFDDSSPTPKEMTKADIEETVQAFQNGARRAKEAGFDVIEIHAAHGFLINEFLSPLSNRRQDEYGGSPENRYRFLGEVIDAVREVWDGPLFVAISASDYHPDGLTAKDYVPYAKRMKEQGVDLVDVSSGAIVPARMNVYPGYQVPFAELIRREADIPTGAVGLITSGWQAEEILQNGRADLVFLGAELLRNPYWPYAAARELGAKISAPVQYERGWRF", "values": [
      {"measurement": "Km", "setting": "[1]; GkOYE.9, MBH reaction", "result": 2.00, "unit": "mM"},
      {"measurement": "kcat", "setting": "[1]; GkOYE.9, MBH reaction", "result": 0.000181, "unit": "s⁻¹"},
      {"measurement": "kcat/Km", "setting": "[1]; GkOYE.9, MBH reaction", "result": 0.0917, "unit": "M⁻¹ s⁻¹"},
      {"measurement": "Km", "setting": "[2]; GkOYE.9, MBH reaction", "result": 12.44, "unit": "mM"},
      {"measurement": "kcat", "setting": "[2]; GkOYE.9, MBH reaction", "result": 0.000442, "unit": "s⁻¹"},
      {"measurement": "kcat/Km", "setting": "[2]; GkOYE.9, MBH reaction", "result": 0.0361, "unit": "M⁻¹ s⁻¹"}
    ]},
    {"protein": "GkOYE (Geobacillus kaustophilus HTA426; G62N/Q102A/R215A/R308A/Y169W) (protein, recombinant, Strep-tagged, pET28a, E. coli BL21(DE3); Strep-Tactin purified; dimer in crystal) MNTMLFSPYTIRGLTLKNRIVMSPMCMYSCDTKDGAVRTWHKIHYPARAVGQVGLIIVEATNVTPQGRISERDLGIWSDDHIAGLRELVGLVKEHGAAIGIALAHAGRKSQVPGEIIAPSAVPFDDSSPTPKEMTKADIEETVQAFQNGARRAKEAGFDVIEIHAAHGWLINEFLSPLSNRRQDEYGGSPENRYRFLGEVIDAVREVWDGPLFVAISASDYHPDGLTAKDYVPYAKRMKEQGVDLVDVSSGAIVPARMNVYPGYQVPFAELIRREADIPTGAVGLITSGWQAEEILQNGRADLVFLGAELLRNPYWPYAAARELGAKISAPVQYERGWRF", "values": [
      {"measurement": "Km", "setting": "[1]; GkOYE.13, MBH reaction", "result": 1.91, "unit": "mM"},
      {"measurement": "kcat", "setting": "[1]; GkOYE.13, MBH reaction", "result": 0.000189, "unit": "s⁻¹"},
      {"measurement": "kcat/Km", "setting": "[1]; GkOYE.13, MBH reaction", "result": 0.1, "unit": "M⁻¹ s⁻¹"},
      {"measurement": "Km", "setting": "[2]; GkOYE.13, MBH reaction", "result": 12.10, "unit": "mM"},
      {"measurement": "kcat", "setting": "[2]; GkOYE.13, MBH reaction", "result": 0.000461, "unit": "s⁻¹"},
      {"measurement": "kcat/Km", "setting": "[2]; GkOYE.13, MBH reaction", "result": 0.0389, "unit": "M⁻¹ s⁻¹"}
    ]}
  ]
}
